{"source": "patent US20080032931A1", "target": "HV62, synthetic peptide corresponding to residues 33 to 94 of human VAMP-2 (human) (UniProt P63027)", "data": [{"substance": "enterokinase-nicked recombinant single-chain TeNT, wild type L chain (enzyme)", "values": [{"measurement": "Initial rate of cleavage of HV62 (nmol · min^-1mg^-1)", "value": 22.7}]}]}
